{"source": "paper PMC8805269", "origin": "cited, not measured here", "target": "Swi6 CSD (Schizosaccharomyces pombe) (UniProt P40381)"}
{"substance": "Swi6 CSD (from UniProt P40381)", "values": [{"measurement": "Kd", "value": "< 17", "unit": "nM"}]}
